These are literature values, as cited in publication PMC5626786.

This data set concerns the target Ark1p peptide (Saccharomyces cerevisiae) (UniProt P53974).
Sequence of UniProt P53974 (P53974 whole entry): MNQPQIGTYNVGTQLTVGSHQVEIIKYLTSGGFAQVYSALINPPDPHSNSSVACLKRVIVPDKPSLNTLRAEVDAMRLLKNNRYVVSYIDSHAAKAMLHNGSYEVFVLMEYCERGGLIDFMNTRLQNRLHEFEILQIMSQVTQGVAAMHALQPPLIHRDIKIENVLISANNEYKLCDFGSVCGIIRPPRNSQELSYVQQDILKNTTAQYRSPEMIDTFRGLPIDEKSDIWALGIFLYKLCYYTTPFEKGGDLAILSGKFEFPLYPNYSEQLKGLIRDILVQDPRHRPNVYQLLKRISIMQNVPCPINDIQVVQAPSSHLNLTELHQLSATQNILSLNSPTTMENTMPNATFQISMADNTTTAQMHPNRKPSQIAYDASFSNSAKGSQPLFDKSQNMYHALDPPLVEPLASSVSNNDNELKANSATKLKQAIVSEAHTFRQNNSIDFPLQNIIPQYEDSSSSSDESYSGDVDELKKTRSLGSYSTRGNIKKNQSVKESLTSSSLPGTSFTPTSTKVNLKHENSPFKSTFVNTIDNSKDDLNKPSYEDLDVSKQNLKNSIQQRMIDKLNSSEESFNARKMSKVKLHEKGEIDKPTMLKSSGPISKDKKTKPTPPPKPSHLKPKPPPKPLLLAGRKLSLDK

The term Kd denotes the concentration at which binding is half-saturated. On to Abp1p SH3 (from UniProt P15891), for which the Kd was 4.4 µM.
